“Also recorded” adds a separate entry of the source.
Columns and labels:
[1] = tested on: soybean seedlings; test: Soybean seedling response to spot infiltrated auxins and conjugates; for 1st trifoliate leaf curl: key: 0 = no phenotype; +/− = threshold; for Chlorotic lesion @ app. Pnt: key: 0 = no phenotype; +/− = threshold; format: in vivo; design: 1st trifoliate leaf curl / Epinasty score: key: 0 = no phenotype; +/− = threshold; conditions: for 1st trifoliate leaf curl / Chlorotic lesion @ app. Pnt / Epinasty score: spot infiltration
Description: Conjugate forms of auxinic compounds when applied through spot infiltration, a needleless method to introduce exogenous agents into plant cells. Initially, various concentrations of analytical grade (98%+pure) IAA, 2,4-D, and dicamba were prepared as solutions that were applied directly to uni-foliate leaves of 9 day old soybean seedlings by spot infiltration in order to determine the range of auxinic response and severity.
Spot infiltration comprises applying a compound to be tested in composition that is applied to the surface of a plant, for example, to a leaf or other plant structure. For example, a method for testing a plant response to one or more compounds using spot infiltration comprises a) providing a composition comprising one or more compounds to be tested in a container having at least an opening for the compound enter and/or exit, and one or more elements for moving the composition into or out of the container; b) contacting at least one opening of the container with the surface of a plant and moving the composition comprising one or more compounds to at least the surface of the plant. A container and elements for moving the composition may comprise a syringe body and plunger. Moving the composition to the plant surface comprises contacting the surface with pressure sufficient for the composition to enter the cells of the plant. In an aspect, spot filtration testing comprises measuring an effect of the composition on the contacted plant and comparing that measure or effect to a plant that is not contacted with the composition.
Plant response phenotypes were documented at one day post-spot infiltration and subsequently every other day, up to nine days post treatment. […] In the studies described herein below, 5 replicate treatments for each conjugate form were conducted, along with appropriate negative controls.
Examples 9 and 10 utilized a spot infiltration method for the delivery of an herbicide directly to leaves of a plant. The method generally allows for the directed delivery of a variety of agents to a localized area of a plant, e.g. localized region of leaves, for screening or assessment purposes, e.g. to quickly assess the response of a plant to the agent. As used in the foregoing examples, the spot infiltration method was used to introduce specific herbicides or specific conjugates of the herbicides to seedling plant leaves. Following introduction of the herbicide or the appropriate conjugate, plants were observed daily for nine days for characteristics of epinasty, trifoliate leaf curly, chlorosis, and new growth recovery.
Briefly, a solution of the desired agent is prepared of the desired agent, e.g. as described above in Example 10, solutions (5% EtOH) of 1, 2.5 and 5 mM IAA. The solution is then drawn into a 1 mL BD™ slip-tip syringe, bulk, non-sterile syringe (e.g. Becton, Dickinson and Company, Product No. 301025) with 100 μL markings. The desired volume is then applied to the leaf, e.g. as described in Examples 9 and 10, with the tip of the syring against the leaf and positive pressure applied to the syringe plunger. Sufficient pressure is applied in order to infuse the area beneath the syringe opening, but not so much pressure as to cause a visible-to-the-eye puncture or hole to form in the leaf. Some run-off of solution around the syringe opening is expected. In the foregoing examples, two spots were applied to each of two leaves per seedling for soybean plants. […] In soybean, both spots per leaf were at the distal portion of the leaf about 1-2 cm apart. When the method was applied to Arabidopsis, two developmentally intermediate aged leaves were chosen per plant, and one spot infiltration was carried out per leaf.

[2] = LC-MS assay of GH3 conjugation of 2,4-D with Asp or Glu; format: biochemical
How it was run: (§1)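 Kinetic parameters come from Michaelis-Menten fits of initial velocities. Velocities reflect LC-MS quantification, against standards, of Asp or Glu conjugates formed by purified GH3 (44 to 164 μg/mL) with 5 mM ATP and MgCl2 at pH 8.0, 30° C.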

[3] = LC-MS assay of GH3 conjugation of dicamba with Asp or Glu; format: biochemical
Description: To detect and monitor the formation of acyl conjugates with 2,4-D or dicamba, a sensitive LC-MS method was developed using the respective amino acid conjugate standards. […] […] […] The supernatant was diluted 20× in water and then analyzed by LC-MS (AB Sciex 4000 QTrap coupled with Shimadzu Nexera UHPLC) using a Phenomenex Luna 3 μm Phenyl-Hexyl (00B-4256-Y0) column. The concentration of the conjugates was calculated based on the standards. Kinetic parameters were estimated by fitting initial velocity values to the Michaelis-Menten equation.
The GH3 superfamily conjugase activity analysis of IAA, 2,4-D or dicamba with Asp or Glu was done using LC-MS to analyze the final conjugate products as described in Example 1. Protein sequences of GH3 homologs (Table 3) were obtained from public databases (NCBI, http://www.ncbi.nlm.nih.gov/) by Blast analysis of AtGH3.17 protein sequence (accession # Q9FZ87). Coding sequences were designed for optimal expression in E. coli based on the protein sequences and synthesized. Synthesized coding sequences along with N-term his-tag coding sequences were cloned into a pET24a-based E. coli expression vector. The E. coli expression vectors were transformed into OverExpress C41(DE3) cells (Lucigen) for protein expression. Recombinant E. coli strains were inoculated into 5 ml LB media supplemented with 40 mg/L kanamycin and cultured overnight at 37° C. The overnight culture (0.5 mL) was inoculated into 50 mL LB medium plus 40 mg/L kanamycin and grown at 30° C. until OD600 reached 0.6. The cultures were induced with 0.2 mM IPTG at 16° C., 230 rpm overnight. Cells were harvested by centrifugation at 7,000 rpm for 10 mins. The cell pellet from 50 mL of cell culture was frozen and thawed twice and then lysed in 800 μL lysis buffer A (150 mM NaCl, 50 mM Tris-HCl pH 8.0, 5 mM MgCl2, 10% glycerol) plus 20 mM imidazole, 1 mM DTT, 0.2 mg/ml lysozyme, 1/200 protease inhibitor cocktail (EMD set3, EDTA free) and 1/2000 endonuclease. Lysate was then centrifuged at 13,000 rpm for 30 min at 4° C. Supernatant was loaded onto 200 μL Ni-NTA columns pre-equilibrated with buffer A with 20 mM imidazole at 4° C. Each column was then washed with (1) 2×800 μL of buffer A with 10 mM imidazole, (2) 2×800 μL of buffer A with 20 mM imidazole and (3) 2×200 μL of buffer A with 50 mM imidazole. Protein was eluted with 200 μL of buffer A with 250 mM imidazole. The concentration was measured by Bradford assay. Purified protein was used in conjugation reaction assays as described in example 1.

[4] = LC-MS assay of GH3 conjugation of IAA with Asp or Glu; format: biochemical
How it was run: as §1

Molecule: O=C(COc1ccc(Cl)cc1Cl)NC(Cc1ccccc1)C(=O)O [2,4-D-Phe]
- 1st trifoliate leaf curl ([1]; 100 μM): 0
- 1st trifoliate leaf curl ([1]; 250 μM): 0
- 1st trifoliate leaf curl ([1]; 500 μM): 0

Molecule: O=C(Cc1c[nH]c2ccccc12)NC(Cc1ccccc1)C(=O)O (centres unmarked) [IAA-Phe]
- 1st trifoliate leaf curl ([1]; 1.0 mM): 0
- Chlorotic lesion @ app. Pnt ([1]; 1.0 mM): 0
- Epinasty score ([1]; 1.0 mM): 0
- 1st trifoliate leaf curl ([1]; 2.5 mM): 0
- Chlorotic lesion @ app. Pnt ([1]; 2.5 mM): 0
- Epinasty score ([1]; 2.5 mM): 0
- 1st trifoliate leaf curl ([1]; 5.0 mM): 0
- Chlorotic lesion @ app. Pnt ([1]; 5.0 mM): 0
- Epinasty score ([1]; 5.0 mM): 0
- Plant response phenotype, soybean ([1]; 1, 2.5 and 5 mM, result in words): No discernable phenotype
- Lesion on leaf surface at point of application, soybean ([1]; dissolved in 50% EtOH, consistent with 50% EtOH alone control): necrotic lesion on leaf surface at point of application

B1: PtGH3-10: GH3 protein, accession EEE95291 (protein, listed as Populus trichocarpa)
chain: MEPKNTNGSSRSYEHDIISWFEDISKKAGQVQTETLRRILELNWGVEYLNKWLGDINIQDMDASALESLYTSLVPPASHADLEPYISRIADGDTVPLLTKQPITLLSLSSGTTDGRQKFVPFTDHSARTTLQIFSLAAAYRSRVYPTREGGRILEFIYSSKQFKTKGGLTAGTATTHYYASEEFKIKQEKTKCFTCSPQEVICGGDYEQSTYCHLLLGLFFCDQVEFITSTFAYSIVQAFTAFEDVWRDICNDIKHGTLSERINLAKMRKAVLSIISPNPSLASKIEENCKELETQNWLGLITKLWPNSKYVYSIMTGSMQPYFKKLRHYAGGLALVSADYGSTESWIGANVDPYLPPEDVTFAVIPTFSYYEFMPLYRENHYCGSAIDDFIEDEPVPLSKVKVGQEYEIVLTTFTGLYRCRLGDVVEVAGFHKGTPKLNFICRRKLILTINIDKNTEKDLQLVVEKGSQLLMSKARAELVDFTSHAELETQPGHYIIYWEIKGDVEEEVLGECCKKMDASFVDHGYVVSRRTKSIGPLELCIVKTGTFKKILEYFIGNGAALSQFKTPRCTSNHGLLKILNGSTIKRLYSTAYS
- Detected auxin conjugates: 2,4-D-Asp ([2]; LC-MS, 2,4-D with Asp): Yes
- Detected auxin conjugates: 2,4-D-Glu ([2]; LC-MS, 2,4-D with Glu): Yes
- Detected auxin conjugates: Dicamba-Asp ([3]; LC-MS, dicamba with Asp): No
- Detected auxin conjugates: Dicamba-Glu ([3]; LC-MS, dicamba with Glu): No
- Detected auxin conjugates: IAA-Asp ([4]; LC-MS, IAA with Asp): Yes
- Detected auxin conjugates: IAA-Glu ([4]; LC-MS, IAA with Glu): Yes

B2: PpGH3-2: GH3 protein, accession CAD42871 (protein, listed as Physcomitrella patens)
chain: MALRIENPYYKLLDTDEEIVEDFELMSRNARETQLELLRKILERNANVEYLQRQGLNGRTDEASFKACVPVSTYANIEADVDRIADGDTSPICCVDPPTSFALSSGTTGGKCKLIPRTDALLAQAMKAGQIGSVYRRRAFPRKHEGPPVVMSFQYAGRQFDTKSGLKAGTGTTNFYRSAAFKNAKSAPFSATSPVDIVLGYDVPQQMYCHLLCGLYRCQEVEQMSAIFAYMIVEPFRLLERVWRDICKDIREGTVNERVSDPELRSSVLKVLSPNPELADLIERECAKGWSGIIERLFPNINYIMSIFSGSMLPYVAPMRQYAGSVPLMNADYGASEAWIGINLDPRCPAEDASFTIIPNFAYFEFIPVNRDSAGYDSVEGDEIVGLTDVKVGQEYEIVLTTVGGLYRYRLGDIVKVTGFFNSTPKVAFVCRKGVVLSVNTDKTDEEELRLVVGKASLLLKESNMELADYSSYTDQDSQPGHYVIFWELRSHEHLDMDLLSECCKVLDQSFNNPYMRGRAARTIGPLELAIVKEGAFARLMEQFVRKNGVGASQYKVSRCFKNPATLKHFRDETIATLRSPDFPPELLAAWRPSTKIVG
- kcat (hrs−1) 2,4-D-Asp ([2]; conjugation of 2,4-D with Asp by recombinant GH3 protein, 2,4-D-Asp product by LC-MS, 5 mM 2,4-D substrate): 0.699 h⁻¹
- kcat (hrs−1) 2,4-D-Glu ([2]; conjugation of 2,4-D with Glu by recombinant GH3 protein, 2,4-D-Glu product by LC-MS, 5 mM 2,4-D substrate): 2.820 h⁻¹
- 2,4-D conjugation activity with Asp or Glu ([2]; result in words): active GH3 conjugase for both IAA and 2,4-D
- Conjugation of dicamba with Glu ([3]; 16 hour reaction, result in words): could conjugate dicamba with Glu; also recorded: able to conjugate dicamba with glutamate
- Amount of dicamba-Glu conjugates versus amount of protein in the reaction ([3]; FIG. 7, result in words): Increased amount of dicamba-Glu was detected; also recorded: increases with increased amount of PpGH3-2 protein
- kcat (16 hrs^−1) dicamba-Glu ([3]; conjugation of dicamba with Glu, 16 hour reaction, protein conc. 983 μg/mL): 0.024 16 hrs^−1
- kcat (hrs−1) IAA-Asp ([4]; conjugation of IAA with Asp by recombinant GH3 protein, IAA-Asp product by LC-MS): 2.896 h⁻¹
- kcat (hrs−1) IAA-Glu ([4]; conjugation of IAA with Glu by recombinant GH3 protein, IAA-Glu product by LC-MS): 19.308 h⁻¹
- IAA conjugation activity with Asp or Glu ([4]; result in words): can also conjugate IAA to Asp and Glu; also recorded: active GH3 conjugase for both IAA and 2,4-D

— patent publication US20150351390A1, “COMPOSITIONS AND METHODS FOR AUXIN-ANALOG CONJUGATION” (PIONEER HI-BRED INTERNATIONAL, INC., priority 2012, published 2015)
